Assay [1] has as its target JAK1 activation loop phosphopeptide (Tyr1034 phosphorylated) (human). The assay can be described thus: ITC. (Isothermal titration calorimetry measures the heat released or taken up as one component is titrated into another.)
Assay [2] has as its target JAK1 kinase domain (JH1) (human) (UniProt P23458). The assay can be described thus: cell-based or functional assay.
The target in assay [3] is JAK1-Y1034 phosphopeptide with an alanine substitution at the +3 position (human). The assay can be described thus: ITC, alanine-substituted phosphopeptide.
In a further assay the target is TYK2 kinase domain (JH1) (UniProt P29597). The assay can be described thus: cell-based or functional assay.
Another assay has as its target JAK2 kinase domain (JH1) (UniProt O60674). Nature of the assay: cell-based or functional assay.
For another assay, the target named is JAK3 kinase domain (JH1) (UniProt P52333). The assay can be described thus: cell-based or functional assay.

The values below come from patent publication US20180298101A1.

As for “human CIS lacking the N-terminal 34 residues (ΔN34) in trimeric complex with elongin B and elongin C (from UniProt Q9NSE2 35-258; Q15370 1-118; Q15369 17-112)”, in assay [1], the Kd (as a rule, the free concentration of one partner at which half of the binding sites on the other are occupied at equilibrium, for simple one-to-one binding) is 2200 to 10000 nM.

On to “human CIS lacking both the N-terminal region (residues 1-66) and the PEST motif (ΔNT/ΔPEST) in trimeric complex with elongin B and elongin C (from UniProt Q9NSE2 67-258; Q15370 1-118; Q15369 17-112)”, for which the IC50 of inhibition of the JAK1 kinase domain (JH1), in vitro kinase reaction in assay [2] turned out to be 600 nM. The same substance came in with a fold reduction of binding against the wild-type JAK1-Y1034 phosphopeptide in assay [3] of 4 fold.

In assay [2], “hCIS-SH2-BC complex (ternary complex of human GST-CIS-SH2 construct, residues 66-258 with PEST region 174-202 deleted, with Elongin B and Elongin C) (from UniProt Q9NSE2 66-258; Q15370 1-118; P83940 17-112)” came in with an IC50 of inhibition of JAK1 phosphorylation of a substrate peptide (in vitro kinase assay) of 120 nM and an efficiency of JAK1 kinase inhibition against SOCS1 as reference of 100 fold. This substance displayed a fold difference of kinase inhibition, JAK1 against TYK2 (in vitro kinase assay) with TYK2 kinase domain (JH1) of 20 fold. In addition, the fold difference of kinase inhibition, JAK1 against JAK2 (in vitro kinase assay) with JAK2 kinase domain (JH1) was determined as 20 fold. The substance also returned a fold difference of kinase inhibition, JAK1 against JAK3 (in vitro kinase assay) in the assay with JAK3 kinase domain (JH1) of 20 fold.
